# Article PMC4928587 (Molecular cancer research : MCR, 2009)
# B1: MBP/PALB2-1–70 (domain or fragment, human, UniProt Q86YC2 1-70, looked up)
# chain: MDEPPGKPLSCEEKEKLKEKLAFLKREYSKTLARLQRAQRAEKIKHSIKKTVEEQDCLSQQDLSPQLKHS
# Biological target: GST/BRCA1-1293–1863 (human, UniProt P38398 1293-1863)
# Test: pull-down
# Sequence of GST/BRCA1-1293–1863 (P38398 1293-1863): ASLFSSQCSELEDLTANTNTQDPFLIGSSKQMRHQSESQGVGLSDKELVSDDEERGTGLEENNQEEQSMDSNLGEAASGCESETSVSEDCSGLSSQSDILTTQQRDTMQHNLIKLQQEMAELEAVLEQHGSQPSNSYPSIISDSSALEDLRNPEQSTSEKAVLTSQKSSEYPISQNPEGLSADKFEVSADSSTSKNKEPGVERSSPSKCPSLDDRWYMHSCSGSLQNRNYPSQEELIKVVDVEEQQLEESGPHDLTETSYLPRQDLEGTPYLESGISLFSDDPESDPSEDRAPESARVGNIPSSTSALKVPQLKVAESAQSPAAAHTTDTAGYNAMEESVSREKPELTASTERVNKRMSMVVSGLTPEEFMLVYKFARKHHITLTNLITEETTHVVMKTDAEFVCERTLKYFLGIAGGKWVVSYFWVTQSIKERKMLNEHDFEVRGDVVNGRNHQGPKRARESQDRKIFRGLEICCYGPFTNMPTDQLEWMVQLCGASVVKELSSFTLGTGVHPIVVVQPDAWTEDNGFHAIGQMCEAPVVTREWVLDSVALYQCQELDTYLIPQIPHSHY
binder,measurement,value
B1,binding result,binds
